Laboratory results published in the supplement of paper PMC12764529.

Assay: folding stability dG unfold (combined trypsin and chymotrypsin); higher = more stable
Procedure: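 Folding stability of de novo designed mini-proteins (<80 aa, no Cys; designed by TrROS, TrMRF, ProteinMPNN and the joint model) was measured by cDNA display proteolysis with trypsin and chymotrypsin. Each protease was used at 11 concentrations in a threefold dilution series plus a no-protease condition. K50 was inferred by Bayesian fitting of sequencing counts, and dG unfold was derived against a sequence-predicted unfolded-state K50 (Tsuboyama et al. method). Sequences shown include variable-length N-terminal GS-type padding (SAGGSAGG...) inside a display construct carrying a PA tag. Rows were kept only if the AF2 dimer inter-PAE was >15, to exclude likely homo-oligomers.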

Folding stability dG unfold, < -1 kcal/mol:
SAGGSAGGSAGGMELEVHYTPNGYHTAEIRDPNGKPVEIYFDSPEDAPKEAQKLAKELQSAGGSAGGSAGGS [r10_1066_TrROS]
SAGGSAGGSAGPLVLVKELKSSRPVFDKNGKLIGTKTEVLVEAELLAPPANPDDPRYKETSAGGSAGGSAGG [r11_131_TrMRF]
SAGGSAGGSAGGSGSFDPENGTIEIRVPKTKKPVKIPFPEEEADEFAENLPPNLDRVHFSAGGSAGGSAGGS [r4_282_TrROS]
SAGGSMPLETLETTGEYVPGTGVYVTKLAVGDPKSDVSFSVTETRPTTDPVTGTPSLYSKPVSFSYKKSAGG [r19_129_JUSTAS]
SAGGSAGGSAGGPKIQIPVDSPEDAVDEARDWMEQQFGIDPEDMPINVHVNEDDGWLYIRSAGGSAGGSAGG [r7_387_TrROS]
SAGGSAGGSAGSPAAERIAKYMEKQGGDNIDIEPVGPRPGYVRIKMKNNRPITIPLKEGDSAGGSAGGSAGG [r11_765_TrROS]
SAGGPNKKIKIVMDPDDPNMPMSEIANFMQKEGFEPVEMVPADNLPPEKAREEAEEEGKPVIEIPFNSAGGS [r16_94_TrROS]
SAGGSAGGSAGGVVSPSSEPVEMTVEEVILETERVPESGESLRPLPVRRVLRTVTNFGLSAGGSAGGSAGGS [r10_122_JUSTAS]
SAGGSAGGSRTIHIPHNAMDKMPPSFEKKIRELADELNIDIEHNNNWMTIPVKGLTEEAIKEFSAGGSAGGS [r12_945_TrROS]
SAGGGSMVETRTLEVEEVEDGTVTLSRTLYPGGLVRLTRTRVPPADPSVAEEVETELVYVSPEEAAASAGGS [r16_161_JUSTAS]
SAGGSAGGSAIGLKDAVPGIENVAKALGAKAKAELKVLPDGKPYLVAKLYKDGKPLGELKVDSAGGSAGGSA [r18_369_TrMRF]
SAGGSAGGSGKIPKLIKEIGIPYEVKSIKVTTGKDDKPTVEIEFLPDVPEEDREKIKKAIEEESAGGSAGGS [r12_352_TrMRF]
SYPRDPSGKITAKITITRDPDGIYRAEIDVVDKDNKPLARASAPYENPYPGVARLKEEAEALAEELEKKKSA [r9_739_TrMRF]
SAGGSNPLLDELKDKPFRLPNIRDPGNGRDFPGVPIKIKEAEPPKDDGKISIKVEHPDGPYEMQIDSAGGSA [r2_314_TrROS]
MRRTLETDEIRRLEIELRPAPGRTAVLDAVVELRDGTPVPLPFPLRLESGRLDPATVERAEREAVEEALARS [r1_124_TrMRF]
SAGGSATIKIPPGMDMEIDDVELNPDDKTVEVEITFGDGPMKARITPNGQKEIEMPNGQPFTIPIDSAGGSA [r15_111_TrROS]
SAGGSANFKIRMPNGRPMDIQPDPEGETWVIRMPGGHIIPIEIKDGKLKDIKILPGMPPNWSIEPVSAGGSA [r15_709_TrROS]
SAGGSAGGVSKVLEVRPAPGSGTYTVRTLREDPATGTTTEEVLTIPTSRPEVVDSLPPDATVELSAGGSAGG [r6_979_JUSTAS]
SAGGPAEFPEGPGVVVGYTYPPDGKPAKWAIPFPDATPEEARERLAKFAEALPIPGAKVVIDDIKPGPSAGG [r13_29_TrMRF]
SAGGSAGGSAGGSGVRLRFPADYPELVEKLAKAFGLKPKSFNPDTGEVDIGNEPGAKIVSAGGSAGGSAGGS [r4_3_TrMRF]
SAGGSAGGSAPDMYRIRAKFPDGKPFPIEFNPEDGQIEVWDGNKEQTIPPGKPIKIDKIEPVSAGGSAGGSA [r18_144_TrROS]
SAGGSAGGSAGGTAEEIRDIFEEHGMEVEVEVTPDNVTIQYEMPNGKKREFRIPADDLKSAGGSAGGSAGGS [r10_1029_TrROS]
SNTIMIMANVPPGPVRIKIEPKNGRRYEMPIPPGEPVMFHIPIPPGLPPGNKWKIEVENPDNGKEQEKDFSA [r9_275_TrROS]
SAGGSAGGSPKEYYIRVKDPEKAKEIMKPLGWPIKPGDEFPIKDPEDILEKLPGIEGIEIHPVSAGGSAGGS [r12_571_TrROS]
SAGGSAGGSAGSMTVTVLEVVPGVPEVVLRRGDTEIRVPASRYTLERDADTTTLVVPEAASAGGSAGGSAGG [r17_403_JUSTAS]
SAGGATTPVTVPTTSEEEVEAIIEELNKEGLSDLIPKGGKPIPPPDSLRLVPLVITTTPGSGKTTVTLSAGG [r13_174_JUSTAS]
MVISPALLREARRAGISDEFLKKAGDVIIPSEVANPEEVKELLAHPGVKKVYPVPPEDPEKLAAAKVVLPGS [r1_248_TrMRF]
SAGGSAGGSAGGSVIMVNSPEWAKEFAGAMMQEKSRKHGEPMTPDDVPVEIEVYDPEDWSAGGSAGGSAGGS [r4_498_TrROS]
